Laboratory results published in patent publication US7101845 (JOSLIN DIABETES CENTER, dated 2006).
Positions of bridges follow the written chain, without caps; N, C: chain ends.

Biological target: MCH receptor (MCHR1) (mouse, UniProt Q8JZL2 1-353)
Test: cell-based or functional assay

Chain of MCH receptor (MCHR1) (Q8JZL2 whole entry): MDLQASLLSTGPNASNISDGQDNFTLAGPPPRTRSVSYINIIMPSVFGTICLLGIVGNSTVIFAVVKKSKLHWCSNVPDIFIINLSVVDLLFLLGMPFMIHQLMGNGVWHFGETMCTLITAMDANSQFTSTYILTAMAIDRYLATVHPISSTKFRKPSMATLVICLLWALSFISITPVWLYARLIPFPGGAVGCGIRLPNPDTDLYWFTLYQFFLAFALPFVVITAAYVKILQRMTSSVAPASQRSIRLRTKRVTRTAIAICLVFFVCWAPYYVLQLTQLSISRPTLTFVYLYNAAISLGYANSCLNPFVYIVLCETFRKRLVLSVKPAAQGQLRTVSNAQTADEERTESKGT

Question: Which results are given for H-DFDMLRCMLGRVYRPCWQV-OH (disulfide 7-16 (inferred)) [Melanocyte concentrating hormone (MCH)]?
Answer: insulin secretion from islets of MCH over expressing mice: 4 fold; insulin secretion from overnight cultured islets of C57B1/6J mice, 100 nM MCH, 30 min, 11.1 mM glucose: 2.4 fold
